Measured values published in patent US20160031999A1 (CSL, published 2016).

T1: mouse IL-11Rα on transfected cells (mouse, UniProt P70225 24-424)
T1 construct: also called mIL-11Rα
T1 sequence: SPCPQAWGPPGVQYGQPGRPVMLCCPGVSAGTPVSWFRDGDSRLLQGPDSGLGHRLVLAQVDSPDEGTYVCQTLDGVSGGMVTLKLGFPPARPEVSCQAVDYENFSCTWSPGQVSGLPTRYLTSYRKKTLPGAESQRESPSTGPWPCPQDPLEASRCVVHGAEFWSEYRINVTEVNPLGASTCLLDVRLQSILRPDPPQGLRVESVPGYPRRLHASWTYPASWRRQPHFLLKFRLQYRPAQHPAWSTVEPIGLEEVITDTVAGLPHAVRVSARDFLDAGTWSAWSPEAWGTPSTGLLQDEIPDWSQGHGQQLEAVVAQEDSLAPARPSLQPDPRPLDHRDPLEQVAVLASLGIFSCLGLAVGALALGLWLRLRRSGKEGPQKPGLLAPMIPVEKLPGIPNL

T2: polypeptide of SEQ ID NO: 86 (human IL-11Rα 23-110 and mouse IL-11Rα 111-367, 8×HIS tag) (human and mouse (chimera), UniProt Q64385 23-367 (mouse entry))
T2 chain: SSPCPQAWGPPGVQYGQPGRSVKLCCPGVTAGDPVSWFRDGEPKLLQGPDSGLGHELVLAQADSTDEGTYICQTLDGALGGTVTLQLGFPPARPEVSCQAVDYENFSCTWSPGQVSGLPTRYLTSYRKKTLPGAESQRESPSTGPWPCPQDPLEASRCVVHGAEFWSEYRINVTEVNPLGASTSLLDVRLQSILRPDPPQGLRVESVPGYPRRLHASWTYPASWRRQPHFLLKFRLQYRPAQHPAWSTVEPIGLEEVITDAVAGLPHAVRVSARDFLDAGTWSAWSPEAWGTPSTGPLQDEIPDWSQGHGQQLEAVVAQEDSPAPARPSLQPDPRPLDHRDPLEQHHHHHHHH

T3: polypeptide of SEQ ID NO: 90 (amino acids 24 to 367 of mouse IL-11Rα, serine at position 206, 8×HIS tag) (mouse, UniProt Q64385 24-367)
T3 construct: also called soluble mIL-11Rα
T3 sequence: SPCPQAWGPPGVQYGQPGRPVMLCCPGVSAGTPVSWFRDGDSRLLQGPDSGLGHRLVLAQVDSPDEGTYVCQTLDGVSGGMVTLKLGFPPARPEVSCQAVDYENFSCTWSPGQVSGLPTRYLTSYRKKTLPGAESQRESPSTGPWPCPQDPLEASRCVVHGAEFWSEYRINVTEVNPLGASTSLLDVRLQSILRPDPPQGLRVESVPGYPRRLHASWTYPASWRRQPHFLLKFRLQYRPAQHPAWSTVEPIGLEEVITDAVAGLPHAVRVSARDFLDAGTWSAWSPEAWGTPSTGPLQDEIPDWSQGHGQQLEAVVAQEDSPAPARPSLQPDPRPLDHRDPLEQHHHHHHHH

T4: V117E mutant of soluble human IL-11Rα (SEQ ID NO: 95) (human, UniProt Q14626 23-318)
T4 construct: also called V95E
T4 sequence: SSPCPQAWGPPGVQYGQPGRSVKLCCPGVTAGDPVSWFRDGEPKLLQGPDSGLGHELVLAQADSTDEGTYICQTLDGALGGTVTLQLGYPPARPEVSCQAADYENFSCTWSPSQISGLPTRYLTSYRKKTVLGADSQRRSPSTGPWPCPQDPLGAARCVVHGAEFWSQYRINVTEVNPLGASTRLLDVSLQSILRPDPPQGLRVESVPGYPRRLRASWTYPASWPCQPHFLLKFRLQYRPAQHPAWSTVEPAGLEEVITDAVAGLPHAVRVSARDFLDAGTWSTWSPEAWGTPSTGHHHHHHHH


Tests used:
[1] = target: T1, mouse IL-11Rα on transfected cells; experiment: binding to transfected cells
[2] = target: T2, polypeptide of SEQ ID NO: 86 (human …); experiment: Biacore, antibody captured; N/B: no or ablated binding
Method: (§1) Various soluble forms of IL-11R comprising regions of hIL-11R and mIL-11R were produced and comprise sequences as set forth in SEQ ID NOs: 3 and 86-90 and the binding of antibodies 8E2, 8D10 and 8E4 to those polypeptides was determined using Western blotting or Biacore analysis.
(§2) For Biacore analysis, anti-human was IgG immobilized on the sensor surface at ˜10,000-12,000 RU and each antibody was captured at between 0.2 μg/ml and 0.5 μg/ml every cycle for 120 seconds. IL-11 receptors were injected over captured antibodies at varying concentrations, ranging from 1 μM down to 2.5 nM, including injections of buffer blanks. Association was monitored for 3-5 minutes, dissociation was monitored for 3-10 minutes. Approximate affinities were determined by fitting binding curves of each interaction to a 1:1 Kinetic Model.

[3] = target: T3, polypeptide of SEQ ID NO: 90 (amino …); experiment: as above
Method: as §1, §2

[4] = target: T4, V117E mutant of soluble human IL-11Rα …; experiment: Biacore, antibody captured; * indicates undetectable binding
Method: (§3) Various point mutants of soluble forms of IL-11R were produced in which amino acids from mIL-11 were introduced into a soluble form of hIL-11 (SEQ ID NO: 85) (see Table 5 for positions of mutations relative to SEQ ID NO: 1 and for reference to the SEQ ID NO: of each polypeptide) and the binding of antibodies to those polypeptides or to polypeptides of SEQ ID NO: 3 or SEQ ID NO: 85 was determined using Biacore analysis or FACS.
(§4) Anti human IgG Fc specific antibody was chemically immobilized on a CM5 chip to ˜9000 RU. Antibodies were captured at about 0.3-1 μg/ml for 120 seconds on 2 spots in each flow cell. Adjacent spots consisting of only anti human IgG were used as a reference. IL-11 receptors were injected over the captured antibodies and reference spots at 40, 10, 5 and 2.5 nM in duplicate. Blank injections of buffer only were also performed in duplicate. Injection was performed for 3 minutes and dissociation monitored for a further 5 minutes.

[5] = target: T4, V117E mutant of soluble human IL-11Rα …; experiment: Biacore, antibody captured on anti-human IgG Fc, receptor injected; mean ± SE, N = 4
Method: as §3, §4

| binding result [1] | binding result [2] | binding result [3] | binding result [4] | Kd [5] [nM] | Binder |
| --- | --- | --- | --- | --- | --- |
| no binding | no binding | no binding | no binding |  | antibody 8D10 (antibody, human IgG4 S228P, kappa, V domains shown) VH: EVQLLESGGGLVQPGGSLRLSCAASGFTFSRYMMGWVRQAPGKGLEWVSSIVPSGGITIYADSVKGRFTISRDNSKNTLYLQMNSLRAEDTAVYYCARDHMGIVATDWGQGTLVTVSS VL: DIQMTQSPSSLSASVGDRVTITCQASQDITNYLNWYLHKPGKAPKLLIYDASNLQTGVPSRFSGSGSGTDFTFTITSLQPEDFGTYYCQQYDTLHPSFGPGTTVDIKR |
|  |  |  |  | 5.54 | antibody 8E4 (antibody, human IgG4 S228P, lambda, V domains shown) VH: EVQLLESGGGLVQPGGSLRLSCAASGFTFSWYFMGWVRQAPGKGLEWVSYIYPSGGSTGYADSVKGRFTISRDNSKNTLYLQMHSLRAEDTAVYYCARDEGYCSSTSCYFDAFDIWGQGTMVTVSS VL: QSALTQPPSASGSPGQSVAISCTGTSSDVGGYNFVSWYQQHPGKAPKLLIYEVTKRPSGVPDRFSGSKAGNTASLTVSGLQAEDEADYYCSSYGGSNNAGVFGTGTKVTVLG |
